Reference: article PMC10691131, “Self S-RNase reduces the expression of two pollen-specific COBRA genes to inhibit pollen tube growth in pear”

T1: PbC2H2.K16.2 (pear, UniProt UPI0005117FCC 5-185)
T1 sequence: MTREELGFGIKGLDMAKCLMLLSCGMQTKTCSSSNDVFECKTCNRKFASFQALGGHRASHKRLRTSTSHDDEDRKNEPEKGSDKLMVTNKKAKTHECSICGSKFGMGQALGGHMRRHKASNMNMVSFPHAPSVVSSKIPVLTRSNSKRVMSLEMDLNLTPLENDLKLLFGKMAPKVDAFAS


Target: T1, PbC2H2.K16.2
Test: EMSA; 10x and 100x cold probe weakens signal; Buffer, salt, pH and temperature not stated; EMSA per Guo et al. 2021, MST per Singh et al. 2014 (Monolith NT.115)
Conditions: protein: recombinant; tags: His; label: 5' biotin (EMSA)

Binder | binding result
PbCOB.A.2 promoter probe (PbC2H2.K16.2) (dsDNA) DNA 1: TAAAAACATGATTGGTCCAATGCAAGTTAT DNA 2: ATAACTTGCATTGGACCAATCATGTTTTTA | binds
PbCOB.A.1 promoter probe (dsDNA) DNA 1: TTCGAGGTTTTTGGTCCAGAAAGAAGAAGA DNA 2: TCTTCTTCTTTCTGGACCAAAAACCTCGAA | binds
